T1: Human Factor VII (human, UniProt P08709 61-466)
T1 construct: also called FVII; HCVII-0030
T1 sequence (looked up): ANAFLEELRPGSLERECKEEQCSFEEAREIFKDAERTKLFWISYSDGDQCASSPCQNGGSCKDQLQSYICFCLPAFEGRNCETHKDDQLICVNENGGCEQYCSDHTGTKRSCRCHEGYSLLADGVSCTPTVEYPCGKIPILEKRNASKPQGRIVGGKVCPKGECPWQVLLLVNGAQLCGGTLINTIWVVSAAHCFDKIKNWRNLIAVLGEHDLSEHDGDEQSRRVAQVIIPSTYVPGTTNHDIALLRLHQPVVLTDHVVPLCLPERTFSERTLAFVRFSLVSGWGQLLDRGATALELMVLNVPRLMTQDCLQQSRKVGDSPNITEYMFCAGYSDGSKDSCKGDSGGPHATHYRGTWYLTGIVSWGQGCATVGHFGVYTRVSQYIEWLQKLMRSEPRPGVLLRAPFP

T2: Human Factor VIIa Protease (human, UniProt P08709 61-466)
T2 construct: also called FVIIa; HCVIIA-0031
T2 sequence (looked up): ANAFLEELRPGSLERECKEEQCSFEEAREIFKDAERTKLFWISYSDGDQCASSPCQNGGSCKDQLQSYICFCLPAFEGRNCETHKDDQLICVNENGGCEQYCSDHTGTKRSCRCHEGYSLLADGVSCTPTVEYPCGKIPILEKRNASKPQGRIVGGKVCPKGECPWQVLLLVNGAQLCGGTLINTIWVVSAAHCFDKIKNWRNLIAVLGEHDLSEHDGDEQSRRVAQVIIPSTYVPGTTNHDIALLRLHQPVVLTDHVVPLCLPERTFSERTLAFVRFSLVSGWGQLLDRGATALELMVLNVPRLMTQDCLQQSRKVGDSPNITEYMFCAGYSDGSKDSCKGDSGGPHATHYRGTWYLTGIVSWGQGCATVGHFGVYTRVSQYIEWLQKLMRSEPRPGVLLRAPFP

T3: Human Factor XII (human, UniProt P00748 20-615)
T3 construct: also called FXII; HFXII 1212
T3 sequence (looked up): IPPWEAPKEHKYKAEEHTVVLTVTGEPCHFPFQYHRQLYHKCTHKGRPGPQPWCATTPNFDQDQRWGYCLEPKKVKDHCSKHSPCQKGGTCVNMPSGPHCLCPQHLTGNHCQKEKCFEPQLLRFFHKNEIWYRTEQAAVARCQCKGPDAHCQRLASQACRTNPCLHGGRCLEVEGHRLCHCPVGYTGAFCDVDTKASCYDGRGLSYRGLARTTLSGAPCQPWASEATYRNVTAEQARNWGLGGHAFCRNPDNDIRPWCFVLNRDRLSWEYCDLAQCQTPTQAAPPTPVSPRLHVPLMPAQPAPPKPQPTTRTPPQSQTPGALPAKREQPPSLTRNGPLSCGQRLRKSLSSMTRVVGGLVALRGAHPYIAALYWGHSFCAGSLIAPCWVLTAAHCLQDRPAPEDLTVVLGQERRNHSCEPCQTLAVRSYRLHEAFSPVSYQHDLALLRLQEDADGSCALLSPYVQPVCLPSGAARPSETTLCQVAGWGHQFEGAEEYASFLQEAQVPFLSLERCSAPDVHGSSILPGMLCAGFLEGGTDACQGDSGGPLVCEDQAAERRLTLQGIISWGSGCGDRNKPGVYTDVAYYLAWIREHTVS

T4: Human Factor XIIa Protease (human, UniProt P00748 20-615, limits assumed)
T4 construct: also called FXIIa; Human Factor Xlla Protease
T4 sequence (looked up): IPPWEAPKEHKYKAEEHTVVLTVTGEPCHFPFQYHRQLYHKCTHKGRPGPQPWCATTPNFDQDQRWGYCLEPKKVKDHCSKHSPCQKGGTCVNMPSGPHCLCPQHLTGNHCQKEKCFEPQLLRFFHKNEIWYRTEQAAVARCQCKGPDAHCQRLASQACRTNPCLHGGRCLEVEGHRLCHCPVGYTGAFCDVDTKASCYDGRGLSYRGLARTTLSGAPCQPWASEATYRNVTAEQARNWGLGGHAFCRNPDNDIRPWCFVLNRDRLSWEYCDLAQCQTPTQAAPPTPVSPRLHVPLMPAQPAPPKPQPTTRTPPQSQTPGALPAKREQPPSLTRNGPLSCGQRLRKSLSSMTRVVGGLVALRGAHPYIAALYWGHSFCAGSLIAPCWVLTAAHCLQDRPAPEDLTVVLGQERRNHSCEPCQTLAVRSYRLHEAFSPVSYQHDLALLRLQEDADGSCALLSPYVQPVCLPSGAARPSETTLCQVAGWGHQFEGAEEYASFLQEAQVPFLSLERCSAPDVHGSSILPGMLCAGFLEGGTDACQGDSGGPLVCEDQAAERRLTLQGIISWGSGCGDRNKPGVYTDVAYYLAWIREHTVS


How the values were obtained:
[1] = molecular target: T5, human coagulation Factor XI (FXI) zymogen (human, UniProt P03951 19-625); experiment: cell-based or functional assay
human FXIa [2] = molecular target: T6, human FXIa (human, UniProt P03951 19-625); experiment: cell-based or functional assay
[3] = molecular target: T5, human coagulation Factor XI (FXI) …; experiment: cell-based or functional assay; remark: listed apart in the source
[4] = molecular target: T7, Cynomolgus monkey plasma Kallikrein (cynomolgus monkey, UniProt A0A2K5VTJ9 20-638); experiment: SPR (Biacore T200), mAb captured on anti-human IgG (Fc) chip, single analyte concentration;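 note: Anti-FXI mAbs captured about 500 RU, anti-RSV mAb as reference, coagulation cascade proteins injected at 500 nM (FXI 5 nM), 25 °C, HBS-EP+ pH 7.4, 1:1 fit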
T7 construct: Recombinant, Merck Sharp & Dohme; also called NHP plasma kallikrein; lot 65AJE; not shown: C-terminal His tag

[5] = molecular target: T8, Human plasma preKallikrein (human, UniProt P03952 20-638); experiment: as above
T8 construct: also called HPK 1302
Procedure: (§1) Anti-FXI mAbs were captured on a CM5 sensor chip immobilized with anti-human IgG (Fc) capture kit (GE Healthcare) at approximately 500 RU to minimize potential background from co-purifying Igs in plasma derived proteins. Negative control antibody, anti-respiratory syncytial virus (RSV) monoclonal antibody (mAb), was used as a reference and to help reduce background binding of plasma-derived proteins. Binding kinetics was measured using an analyte concentration of FXI at 5 nM; all other coagulation cascade proteins were used at an analyte concentration of 500 nM. Single concentration injections (n=2) were run at 30 μL/min, 25° C., HBS-EP+, pH 7.4.
(§2) Biacore T200 evaluation software was used to fit data to a 1:1 binding model to determine the association rate constant, kₐ (M⁻¹ s⁻¹, where “M” equals molar and “s” equals seconds) and the dissociation rate constant, kd (s⁻¹). These rate constants were used to calculate the equilibrium dissociation constant, KD (M).

Human plasma Kallikrein = molecular target: T9, Human plasma Kallikrein (human, UniProt P03952 20-638); experiment: as above
T9 construct: also called HPKa 1303
Procedure: as §1, §2

[6] = molecular target: Human Factor II (α-thrombin) (human, UniProt P00734 328-622); experiment: as above
Procedure: as §1, §2

Human Factor VII = molecular target: T1, Human Factor VII; experiment: as above
Procedure: as §1, §2

[7] = molecular target: T2, Human Factor VIIa Protease; experiment: as above
Procedure: as §1, §2

Human Factor IX = molecular target: T10, Human Factor IX (human, UniProt P00740 47-461); experiment: as above
T10 construct: also called FIX; FIX zymogen
Procedure: as §1, §2

[8] = molecular target: T11, Human Factor IXa Protease (human, UniProt P00740 47-191; P00740 227-461); experiment: as above
T11 construct: also called FIXa; HFIXa 1080
Procedure: as §1, §2

Human Factor X = molecular target: T12, Human Factor X (human, UniProt P00742 41-488); experiment: as above
T12 construct: also called FX; HFX1010
Procedure: as §1, §2

Human Factor Xa Protease = molecular target: T13, Human Factor Xa Protease (human, UniProt P00742 41-179; P00742 235-488, limits assumed); experiment: as above
T13 construct: also called FXa; HFXa 1011
Procedure: as §1, §2

Human Factor XII = molecular target: T3, Human Factor XII; experiment: as above
Procedure: as §1, §2

[9] = molecular target: T4, Human Factor XIIa Protease; experiment: as above
Procedure: as §1, §2

[10] = molecular target: T14, Human Factor II (Prothrombin) (human, UniProt P00734 44-622); experiment: as above
T14 construct: also called FII; lot 41AHG
Procedure: as §1, §2

[11] = molecular target: T15, Rhesus monkey plasma Kallikrein (rhesus monkey, UniProt A0A1D5Q7U7 20-638); experiment: as above
T15 construct: Recombinant, Merck Sharp & Dohme; also called NHP plasma kallikrein; lot 00AJF; not shown: C-terminal His tag

[12] = molecular target: T5, human coagulation Factor XI (FXI) …; experiment: SPR (ProteOn XPR36), antibody captured by anti-human IgG Fc, FXI as analyte; mean ± SD, N=3
Procedure: (§3) After capture of anti-FXI antibodies, running buffer (1×HBS-N, 5 mM CaCl₂, 0.005% P20, pH 7.4) was injected across all horizontal flow channels (A1-A6) for 5 minutes and allowed to dissociate for 20 minutes at 25 μL/min to remove any non-specifically bound anti-FXI antibodies from the chip surface.
(§4) After capture of anti-FXI antibodies, running buffer was injected across all horizontal flow channels (A1-A6) for 5 minutes and allowed to dissociate for 20 minutes at 25 L/minutes to remove non-specifically bound anti-FXI antibodies from the chip surface.

[13] = molecular target: T16, cynomolgus monkey FXI zymogen (cynomolgus monkey, UniProt A0A2K5VVW4 19-624); experiment: as above
T16 construct: also called cyno FXI; NHP FXI
Procedure: as §3, §4

[14] = molecular target: T17, rhesus monkey FXI zymogen (rhesus monkey, UniProt F6PJ95 19-624); experiment: as above
T17 construct: also called Rhesus FXI; NHP FXI
Procedure: as §3, §4

human FXIa [15] = molecular target: T6, human FXIa; experiment: SPR (ProteOn XPR36), antibody captured by anti-human IgG Fc, FXIa as analyte; mean ± SD, N=3
Procedure: as §3, §4

cynomolgus monkey FXIa = molecular target: T18, cynomolgus monkey FXIa (cynomolgus monkey, UniProt A0A2K5VVW4 19-624); experiment: as above
T18 construct: also called NHP FXIa
Procedure: as §3, §4

rhesus monkey FXIa = molecular target: T19, rhesus monkey FXIa (rhesus monkey, UniProt F6PJ95 19-624); experiment: as above
T19 construct: also called NHP FXIa
T19 sequence (F6PJ95 entry or part of it): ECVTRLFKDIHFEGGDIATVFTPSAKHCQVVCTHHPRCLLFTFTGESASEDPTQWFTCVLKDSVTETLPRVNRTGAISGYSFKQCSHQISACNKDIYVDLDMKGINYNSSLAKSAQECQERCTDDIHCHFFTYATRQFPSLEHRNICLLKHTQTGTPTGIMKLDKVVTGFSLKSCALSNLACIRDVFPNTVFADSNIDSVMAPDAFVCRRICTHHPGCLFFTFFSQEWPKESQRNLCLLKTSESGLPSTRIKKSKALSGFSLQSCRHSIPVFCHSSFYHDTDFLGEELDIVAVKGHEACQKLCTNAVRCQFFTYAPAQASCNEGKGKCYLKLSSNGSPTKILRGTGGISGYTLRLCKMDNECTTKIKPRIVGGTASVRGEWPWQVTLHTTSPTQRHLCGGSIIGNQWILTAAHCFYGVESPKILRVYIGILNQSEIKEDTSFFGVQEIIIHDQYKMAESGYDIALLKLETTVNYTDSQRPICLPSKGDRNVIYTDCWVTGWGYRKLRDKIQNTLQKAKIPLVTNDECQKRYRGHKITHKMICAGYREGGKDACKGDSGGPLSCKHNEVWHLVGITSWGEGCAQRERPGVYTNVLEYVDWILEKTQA
Procedure: as §3, §4

T17 sequence (F6PJ95 entry or part of it): as above
T15 sequence (A0A1D5Q7U7 entry or part of it): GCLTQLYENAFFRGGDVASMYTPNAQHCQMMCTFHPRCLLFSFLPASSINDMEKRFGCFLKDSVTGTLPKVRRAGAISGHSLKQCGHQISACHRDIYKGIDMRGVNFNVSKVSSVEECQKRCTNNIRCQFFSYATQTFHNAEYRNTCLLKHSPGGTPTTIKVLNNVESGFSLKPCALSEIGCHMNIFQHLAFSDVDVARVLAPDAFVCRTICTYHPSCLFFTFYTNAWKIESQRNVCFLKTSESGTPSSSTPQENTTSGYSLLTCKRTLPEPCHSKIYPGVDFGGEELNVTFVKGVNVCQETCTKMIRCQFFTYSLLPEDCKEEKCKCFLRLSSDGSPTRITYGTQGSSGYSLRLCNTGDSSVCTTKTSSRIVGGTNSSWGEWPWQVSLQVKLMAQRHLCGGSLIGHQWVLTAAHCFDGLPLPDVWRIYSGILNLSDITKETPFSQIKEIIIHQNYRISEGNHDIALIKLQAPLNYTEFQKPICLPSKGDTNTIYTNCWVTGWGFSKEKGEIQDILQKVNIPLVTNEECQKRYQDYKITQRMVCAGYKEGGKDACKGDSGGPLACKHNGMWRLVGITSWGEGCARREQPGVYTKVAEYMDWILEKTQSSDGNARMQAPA
T16 sequence (A0A2K5VVW4 entry or part of it): as the sequence (F6PJ95 entry or part of it) above, with D101N, K113E, I126V, V191A counted along it
T18 sequence (A0A2K5VVW4 entry or part of it): as the sequence (F6PJ95 entry or part of it) above, with D101N, K113E, I126V, V191A counted along it
T8 sequence (P03952 20-638 limits assumed): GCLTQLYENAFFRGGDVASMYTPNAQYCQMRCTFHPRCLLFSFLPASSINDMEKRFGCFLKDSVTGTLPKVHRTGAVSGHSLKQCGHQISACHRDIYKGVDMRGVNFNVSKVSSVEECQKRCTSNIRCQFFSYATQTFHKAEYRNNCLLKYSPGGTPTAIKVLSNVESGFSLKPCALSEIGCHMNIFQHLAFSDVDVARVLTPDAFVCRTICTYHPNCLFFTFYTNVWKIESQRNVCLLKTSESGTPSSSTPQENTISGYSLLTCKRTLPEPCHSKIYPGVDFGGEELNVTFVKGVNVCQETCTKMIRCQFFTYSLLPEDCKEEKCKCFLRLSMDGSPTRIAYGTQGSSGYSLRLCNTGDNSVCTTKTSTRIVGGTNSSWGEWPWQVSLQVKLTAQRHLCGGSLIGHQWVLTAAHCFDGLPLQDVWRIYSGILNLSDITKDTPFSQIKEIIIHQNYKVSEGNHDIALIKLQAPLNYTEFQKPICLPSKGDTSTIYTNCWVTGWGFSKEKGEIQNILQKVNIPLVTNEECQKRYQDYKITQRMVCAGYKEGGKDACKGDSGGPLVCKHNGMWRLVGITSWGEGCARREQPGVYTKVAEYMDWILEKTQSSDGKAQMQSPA
T9 sequence (P03952 20-638 limits assumed): as above
T7 sequence (A0A2K5VTJ9 entry or part of it): as the sequence (A0A1D5Q7U7 entry or part of it) above, with N24T counted along it

Row | Binder | FXIIa Activation + HK Inhibition (IC50, nM) [1] | FXIIa Activation no HK Inhibition (IC50, nM) [1] | FXIa IC50 nM (native, full-length substrate; activation of FIX to FIXa) (human FXIa [2]) | FXIa IC50 nM (tri-peptide substrate) (human FXIa [2]) | FXI Autoactivation IC50 nM (on dextran sulfate) [3] | binding result [5] | binding result (Human plasma Kallikrein) | binding result [6] | binding result (Human Factor VII) | binding result [7] | binding result (Human Factor IX) | binding result [8] | binding result (Human Factor X) | binding result (Human Factor Xa Protease) | binding result (Human Factor XII) | binding result [9] | binding result [10] | binding result [11] | Kd [12] | Kd [13] | also measured
1 | αFXI-18611 IgG4 HC (S228P)(E1)(L105)/LC Kappa (antibody, V domains shown, Fully human IgG4 (S228P)/kappa; also called αFXI-18611 mAb) VH: EVQLQESGPGLVKPSETLSLTCAVSGYSISSGYFWGWIRQPPGKGLEWIGSILHSGVTYYNPSLKSRVTISVDTSKNQFSLKLSSVTAADTAVYYCARDRTTVSLIEYFQHWGQGTLVTVSS VL: not shown | 7.6 nM | 34 nM | 1 nM | > 1000 nM | 3.3 nM | no binding (tested: 500 nM) | no binding (tested: 500 nM) | no binding (tested: 500 nM) | no binding (tested: 500 nM) | no binding (tested: 500 nM) | no binding (tested: 500 nM) | no binding (tested: 500 nM) | no binding (tested: 500 nM) | no binding (tested: 500 nM) | no binding (tested: 500 nM) | no binding (tested: 500 nM) | no binding (tested: 500 nM) | no binding (tested: 500 nM) | 0.1 nM | 0.18 nM | binding result [4]: no binding (tested: 500 nM); Kd [14]: 0.0529 nM; Kd (human FXIa [15]): 0.0554 nM; Kd (cynomolgus monkey FXIa): 0.0892 nM; Kd (rhesus monkey FXIa): 0.175 nM
2 | αFXI-18623p IgG4 HC (S228P)(Q1)/LC Kappa (antibody, V domains shown, Fully human IgG4 (S228P)/kappa; also called αFXI-18623p-IgG4 (S228P) (Q1)/LC Kappa) VH: QVQLQESGPGLVKPSQTLSLTCTVSGGSIYSGAYYWSWIRQHPGKGLEWIGSIHYSGLTYYNPSLKSRVTISVDTSKNQFSLKLSSVTAADTAVYYCARDVDDSSGDEHYGMDVWGQGTTVTVSS VL: DIQMTQSPSSVSASVGDRVTITCRASQGIDSWLAWYQQKPGKAPKLLIYAASSLQSGVPSRFSGSGSGTDFTLTISSLQPEDFATYYCQQYHIVPITFGGGTKVEIKR | 6 nM | 14 nM | 0.4 nM | > 1000 nM | 5.5 nM | no binding (tested: 500 nM) | no binding (tested: 500 nM) | no binding (tested: 500 nM) | no binding (tested: 500 nM) | no binding (tested: 500 nM) | no binding (tested: 500 nM) | no binding (tested: 500 nM) | no binding (tested: 500 nM) | no binding (tested: 500 nM) | no binding (tested: 500 nM) | no binding (tested: 500 nM) | no binding (tested: 500 nM) | no binding (tested: 500 nM) | 0.0226 nM | 0.013 nM | Kd [14]: 0.0722 nM; Kd (human FXIa [15]): 0.0374 nM; Kd (cynomolgus monkey FXIa): 0.0195 nM; Kd (rhesus monkey FXIa): 0.149 nM

Reference: patent publication US20200255542A1 (Merck Sharp & Dohme, published 2020)
